Laboratory results published in patent US20230060574A1 (Ablynx, published 2023).

Columns and labels:
Test in all cases: SPR ProteOn, SA immobilized, pH 7.4
[1] = target: T1, human serum albumin (Sigma-Aldrich A3782) (human, UniProt P02768 25-609)
T1 construct: Bought protein; also called HSA; human SA

[2] = target: T2, cynomolgus monkey serum albumin (generated in-house) (cynomolgus monkey, UniProt A2V9Z4 25-608, limits assumed)
T2 construct: also called cyno SA

[3] = target: T3, rat serum albumin (Sigma-Aldrich A4538) (rat, UniProt P02770 25-608)
T3 construct: Bought protein; also called rat SA

[4] = target: T4, mouse serum albumin (Albumin Bioscience 2601) (mouse, UniProt P07724 25-608)
T4 construct: Bought protein; also called mouse SA

[5] = target: T5, guinea pig serum albumin (Gentaur GPSA62) (guinea pig)
T5 construct: Bought protein; also called guinea pig SA

[6] = target: T6, dog serum albumin (Abcam 119814) (dog, UniProt P49822 25-608)
T6 construct: Bought protein; also called dog SA

[7] = target: T7, pig serum albumin (Sigma-Aldrich A4414) (pig, UniProt P08835 25-607)
T7 construct: Bought protein; also called pig SA

B1: serum albumin binder of SEQ ID NO:19 (invention), T023500029 (VHH)
VHH: EVQLVESGGGVVQPGDSLRLSCAASGGTFSTYVMGWFRQAPGKEREFVSAISQNSIHTYYANSVKGRFTISRDNSKNTVYLQLNSLRPEDTALYYCAASRFTSWYTADYEYDYWGQGTLVTVSS
notes: No tag is mentioned there
koff [1]: 0.00027 s⁻¹
kon [1]: 610000 M⁻¹ s⁻¹
koff [2]: 0.00023 s⁻¹
kon [2]: 520000 M⁻¹ s⁻¹
koff [3]: 8e-05 s⁻¹
kon [3]: 1.2e+06 M⁻¹ s⁻¹
koff [4]: 0.00025 s⁻¹
kon [4]: 910000 M⁻¹ s⁻¹
Kd [5]: 0.3 nM
koff [5]: 0.00031 s⁻¹
kon [5]: 1e+06 M⁻¹ s⁻¹
koff [6]: 0.00084 s⁻¹
kon [6]: 720000 M⁻¹ s⁻¹
koff [7]: 0.0046 s⁻¹
kon [7]: 100000 M⁻¹ s⁻¹
